Assay results taken from patent publication US20210317225A1 (Genmab, published 2021).

Assays:
[1] = molecular target: T1, Human CD137 shuffle 1 (amino acids 162-186 replaced by wild boar CD137) (human, amino acids 162-186 from wild …, UniProt Q07011 24-255); test: flow cytometry on transfected HEK293T-17 cells, 1 µg/mL antibody
T1 construct: also called shuffle construct 1
T1 chain: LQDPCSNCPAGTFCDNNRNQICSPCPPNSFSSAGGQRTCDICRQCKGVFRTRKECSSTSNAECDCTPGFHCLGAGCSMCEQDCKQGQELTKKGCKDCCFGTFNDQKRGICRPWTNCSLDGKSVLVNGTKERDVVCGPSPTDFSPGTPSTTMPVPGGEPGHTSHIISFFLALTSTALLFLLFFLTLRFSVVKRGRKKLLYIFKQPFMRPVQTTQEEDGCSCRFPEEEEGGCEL
Protocol: (§1) 3×10⁶ HEK293T-17 cells were seeded in T75 culture flasks (Greiner Bio-One, cat. no. 658175) in 20 mL RPMI 1640 GlutaMAX medium containing 10% FCS (Biochrom, cat. no. S 0115). After O/N incubation, cells were transiently […] with expression vectors encoding the shuffle constructs or the wild boar, African elephant or human CD137 downstream of a constitutively active human elongation factor-1 alpha (EF-1 alpha) promotor using TransIT®-LT1 Transfection Reagent, Mirus Bio (VWR International, cat. no. 731-0029), according to the manufacturer's instructions. The next day, cells were harvested using 1.5 mL Accutase (Sigma Aldrich, cat. no. A6964) (incubation at 37° C. for 5 min.) and flow cytometry was performed, essentially as described in Example 4, to measure surface expression of the shuffle constructs and the human, African elephant and wild boar CD137 and to measure binding of the antibody clones to the different shuffle constructs. To measure cell surface expression of the constructs, transduced cells were incubated with 1 μg/mL goat polyclonal anti-human CD137 (R&D Systems, cat. no. AF838) in FACS buffer (D-PBS supplemented with 5 mM EDTA [Sigma Aldrich, cat. no. 03690] and 5% (v/v) fetal bovine serum [FBS, Biochrom, cat. no. S 0115]) (4° C., 20 min.), followed by incubation with APC-labeled anti-goat IgG (H+L) (R&D Systems, cat. no. F0108) (4° C., 20 min.). Binding of the different CD137 antibody clones to cells expressing the shuffle constructs was measured by incubation of the transduced cells with 1 μg/mL of the antibody clones, followed by APC-labeled AffiniPure F(ab′)2 Fragment (1:50 final dilution; Jackson, cat. no. 109-136-127).

[2] = molecular target: T2, Human CD137 shuffle 3 (amino acids 115-138 replaced by wild boar CD137) (human, amino acids 115-138 from wild …, UniProt Q07011 24-255); test: as above
T2 construct: also called shuffle construct 3
T2 chain: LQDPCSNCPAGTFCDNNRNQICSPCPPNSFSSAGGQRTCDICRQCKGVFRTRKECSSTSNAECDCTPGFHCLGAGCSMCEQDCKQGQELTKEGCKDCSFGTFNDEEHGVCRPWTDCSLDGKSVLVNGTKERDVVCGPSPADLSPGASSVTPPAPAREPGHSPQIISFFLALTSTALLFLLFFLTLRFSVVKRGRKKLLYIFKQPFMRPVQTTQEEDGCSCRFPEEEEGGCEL
Protocol: as §1

[3] = molecular target: T3, Human CD137 shuffle 2 (amino acids 139-161 replaced by wild boar CD137) (human, amino acids 139-161 from wild …, UniProt Q07011 24-255); test: as above
T3 construct: also called shuffle construct 2
T3 chain: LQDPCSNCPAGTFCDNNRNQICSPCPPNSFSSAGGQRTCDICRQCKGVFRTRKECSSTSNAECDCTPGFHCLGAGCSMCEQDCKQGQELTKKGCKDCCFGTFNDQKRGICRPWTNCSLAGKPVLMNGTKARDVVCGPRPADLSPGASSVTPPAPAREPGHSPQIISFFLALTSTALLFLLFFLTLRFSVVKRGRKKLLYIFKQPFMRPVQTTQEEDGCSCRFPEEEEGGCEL
Protocol: as §1

[4] = molecular target: T4, Human CD137 shuffle 5 (amino acids 48-88 replaced by African elephant CD137) (human, amino acids 48-88 from African …, UniProt Q07011 24-255); test: as above
T4 construct: also called shuffle construct 5
T4 chain: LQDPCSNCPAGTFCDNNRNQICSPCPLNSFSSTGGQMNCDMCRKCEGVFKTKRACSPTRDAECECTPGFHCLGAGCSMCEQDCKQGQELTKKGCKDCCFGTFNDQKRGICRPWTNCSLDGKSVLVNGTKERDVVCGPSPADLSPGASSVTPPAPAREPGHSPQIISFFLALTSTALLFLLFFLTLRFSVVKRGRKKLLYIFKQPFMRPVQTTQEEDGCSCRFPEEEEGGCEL
Protocol: as §1

[5] = molecular target: T5, Human CD137 shuffle 4 (amino acids 89-114 replaced by wild boar CD137) (human, amino acids 89-114 from wild boar, UniProt Q07011 24-255); test: flow cytometry on transfected HEK293T-17 cells
T5 construct: also called shuffle construct 4
T5 chain: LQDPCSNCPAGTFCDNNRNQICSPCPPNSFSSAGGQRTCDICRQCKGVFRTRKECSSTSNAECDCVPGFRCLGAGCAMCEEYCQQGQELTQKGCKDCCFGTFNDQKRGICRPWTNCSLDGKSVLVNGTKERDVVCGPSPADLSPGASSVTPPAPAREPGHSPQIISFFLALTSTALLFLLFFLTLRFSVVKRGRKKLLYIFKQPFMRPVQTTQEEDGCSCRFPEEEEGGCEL
Protocol: as §1

[6] = molecular target: T6, Human CD137 (TNR9_Human) (human, UniProt Q07011 24-255); test: flow cytometry, HEK293-T17 cells transiently transfected with human CD137, antibody at 1 µg/mL, APC-labeled F(ab')2 secondary [cont.]
T6 construct: Full-length human CD137 expressed on HEK293T-17, NF-kB/293/GFP-Luc or K562 cells, or native on T cells; also called hCD137 wt; 4-1BB
Protocol: (§2) FIG. 4: Binding of CD137 antibody clones to CD137 shuffle constructs expressed on HEK293-T17 cells. HEK293-T17 cells were transfected with the CD137 shuffle constructs, and with human CD137 (hCD137 wt), African elephant of wild boar CD137, as indicated. Binding of the different CD137 antibody clones to these constructs expressed on HEK293-T17 cells was measured by flow cytometry. Staining with polyclonal anti-CD137 antibody is shown as a control.
as §1

[7] = molecular target: T5, Human CD137 shuffle 4 (amino acids …); test: flow cytometry on transfected HEK293T-17 cells, 1 µg/mL antibody
Protocol: as §1

[8] = molecular target: T6, Human CD137 (TNR9_Human); test: flow cytometry, HEK293-T17 cells transiently transfected with human CD137, antibody at 1 µg/mL, APC-labeled F(ab')2 secondary
Protocol: as §2, §1

[9] = molecular target: Human CD40 (human, UniProt P25942 21-277); test: cell-based or functional assay
Human CD40, sequence (P25942 21-277): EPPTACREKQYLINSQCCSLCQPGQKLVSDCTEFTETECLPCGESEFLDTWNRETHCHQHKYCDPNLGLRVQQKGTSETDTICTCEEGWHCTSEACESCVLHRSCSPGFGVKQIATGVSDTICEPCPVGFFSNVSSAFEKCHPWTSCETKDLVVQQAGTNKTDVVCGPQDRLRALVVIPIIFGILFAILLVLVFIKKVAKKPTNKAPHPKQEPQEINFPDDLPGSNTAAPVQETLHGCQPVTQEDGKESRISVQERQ

[10] = molecular target: T6, Human CD137 (TNR9_Human); test: cell-based or functional assay

Row | Binder | binding result [1] | binding result [2] | binding result [3] | binding result [4] | binding result [5] | binding result [6] | binding result [7] | binding result [8] | luciferase activity (RLU) of NF-KB/293/GFP-Luc cells transduced with CD40, incubated with K562_CD137 [9] [ng/mL] | luciferase activity (RLU) of NF-KB/293/GFP-Luc cells transduced with CD137, incubated with K562_CD40 [10] [ng/mL]
1 | CD137 antibody clone 007 (rabbit) (antibody, human IgG1, kappa, V domains shown, also called Clone 7; CD137 clone 007) VH: QSLEESGGRLVTPGTPLTLTCTASGFSLSSYDVSWVRQAPGKGLEYIGFIGSDGSAHYATWVKGRFTISKTSTTVDLKITSPTTEDTATYFCARDWNDYWAHDLWGPGTLVTVSS VL: AQVLTQTTSPVSAAVGGTVTINCQASQIVTSKSALSWYQQKPGQPPRLLIYKASTLASGVPSRFSGSGSGTQFTLTISDLESDDAATYYCAGGYYNSGDLNPFGGGTEVVVKR | binds | binds | binds | binds | no binding (tested: 1 µg/mL) | binds | – | – | – | –
2 | CD137 antibody clone 001 (rabbit) (antibody, human IgG1, kappa, V domains shown, also called Clone 1; CD137 clone 001) VH: QSVEESGGRLVTPGTPLTLTCTVSGFSLSSYAVSWVRQAPGKGLEWIGVIWNNGATHYATWAKGRFTISKASTTVDLKVTSPTTEDTATYFCARSANDAWSTYSDLWGQGTLVTVSS VL: DIVMTQTPASVEAAVGGTVTIKCQASQTITNYLSWYQQKPGQPPKLLIYKASTLTSGVSSRFKGSGSGTEFTLTISDLESDDAATYYCQNYYYGSSSGYGFVFGGGTEVVVKR | binds | binds | binds | binds | – | – | binds | binds | – | –
3 | CD137 antibody clone 003 (rabbit) (antibody, human IgG1, kappa, V domains shown, also called Clone 3; CD137 clone 003) VH: QSVEESGGRLVTPGTPLTLTCTASGFTISSYHMIWVRQAPGEGLEWIGDIYGGTATTDYASWAKGRFTISKTSTTVDLKMTSLTTEDTATYFCARARYSGGSYANYVFNLWGQGTLVTVSS VL: DIVMTQTPASVEAAVGGTVTIKCQASQSISSYLAWYQQKPGQPPKLLIYRTSTLESGVPSRFKGSGSGTEFTLTISDLESADAATYYCQGYDWSSSNRYDNTFGGGTEVVVKR | binds | binds | binds | binds | no binding (tested: 1 µg/mL) | – | – | binds | – | –
4 | CD40-001-FEALxCD137-004-FEAR (bispecific antibody, human IgG1, kappa) heavy 1: EVQLQQSGPDLVKPGASVKISCKTSGYTFTEYIMHWVKQSHGKSLEWIGGIIPNNGGTSYNQKFKDKATMTVDKSSSTGYMELRSLTSEDSAVYYCTRREVYGRNYYALDYWGQGTLVTVSSASTKGPSVFPLAPSSKSTSGGTAALGCLVKDYFPEPVTVSWNSGALTSGVHTFPAVLQSSGLYSLSSVVTVPSSSLGTQTYICNVNHKPSNTKVDKRVEPKSCDKTHTCPPCPAPEFEGGPSVFLFPPKPKDTLMISRTPEVTCVVVAVSHEDPEVKFNWYVDGVEVHNAKTKPREEQYNSTYRVVSVLTVLHQDWLNGKEYKCKVSNKALPAPIEKTISKAKGQPREPQVYTLPPSREEMTKNQVSLTCLVKGFYPSDIAVEWESNGQPENNYKTTPPVLDSDGSFLLYSKLTVDKSRWQQGNVFSCSVMHEALHNHYTQKSLSLSPGK light 1: DIQMTQTTSSLSASLGDRVTITCSASQGINNYLNWYQQKPDGTVKLLIYYTSSLHSGVPSRFSGSGSGTDYSLTISNLEPEDIATYYCQQYSNLPYTFGGGTKLEIKRTVAAPSVFIFPPSDEQLKSGTASVVCLLNNFYPREAKVQWKVDNALQSGNSQESVTEQDSKDSTYSLSSTLTLSKADYEKHKVYACEVTHQGLSSPVTKSFNRGEC heavy 2: QSLEESGGRLVTPGTPLTLTCTASGFSLSRYDMSWVRQAPGKGLEYIGVISSSGGTNYANWAKGRFTISKTSTTVDLKITSPTTEDTATYFCAREGDYWDFNLWGPGTLVTVSSASTKGPSVFPLAPSSKSTSGGTAALGCLVKDYFPEPVTVSWNSGALTSGVHTFPAVLQSSGLYSLSSVVTVPSSSLGTQTYICNVNHKPSNTKVDKRVEPKSCDKTHTCPPCPAPEFEGGPSVFLFPPKPKDTLMISRTPEVTCVVVAVSHEDPEVKFNWYVDGVEVHNAKTKPREEQYNSTYRVVSVLTVLHQDWLNGKEYKCKVSNKALPAPIEKTISKAKGQPREPQVYTLPPSREEMTKNQVSLTCLVKGFYPSDIAVEWESNGQPENNYKTTPPVLDSDGSFFLYSRLTVDKSRWQQGNVFSCSVMHEALHNHYTQKSLSLSPGK light 2: AQVLTQTPSSVSAAVGGTVTINCQASQSISNLLAWYQQKPGQPPKLLIYGASTLASGVPSRFSGSGSGTEFTLTISDLESDDAATYYCAGGFPGLDTVAAFGGGTEAVVTRTVAAPSVFIFPPSDEQLKSGTASVVCLLNNFYPREAKVQWKVDNALQSGNSQESVTEQDSKDSTYSLSSTLTLSKADYEKHKVYACEVTHQGLSSPVTKSFNRGEC | – | – | – | – | – | – | – | – | ~100 | ~100
5 | CD137 antibody clone 012 (rabbit) (antibody, human IgG1, kappa, V domains shown, also called Clone 12; CD137 clone 012) VH: QSVEESGGRLVTPGTPLTLTCTVSGFSLSDYYMTWVRQAPGKGLEYIGIMSGSGSTYYASWAKGRFTISKTSSTTLELKITSPTTEDTAIYFCARDGDYAGWGYATGAFDPWGPGTLVTVSS VL: AAVLTQTPSPVSAAVGGTVTISCQASQSVVGNSLLSWFQKKPGQPPKLLIYSASSLASGVPSRFKGSGSGTQFTLTISDLESDDAATYYCTGRYNSDTDTFVFGGGTEVVVKR | binds | binds | binds | binds | – | binds | binds | – | – | –
